Here are results for 125 sequences from the supplement of paper PMC9112550, “Optimization of the antimicrobial peptide Bac7 by deep mutational scanning” (BMC Biology, 2022).
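Note: peptides expressed intracellularly from a pBAD plasmid library in pooled LB shake-flask culture, induced with 0.3% L-arabinose, DNA abundance read by NGS, three biological replicates, DESeq2 with apeglm shrinkage.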

This data set concerns Escherichia coli TOP10. Kind of data set: shrunken log2 fold change of peptide-encoding DNA abundance (4.5 h post-induction vs induction); higher = less antimicrobial activity (less host growth inhibition). The settings on record: time post-induction: 4.5 h; library: site-saturation at positions 5, 18, 19, 20.
Consider RRIRHRPPRLPRPRPRPPVFPRP, for which the “shrunken log2 fold change” value worked out at 0.612. Take RRIRHRPPRLPRPRPRPKCAPRP: the “shrunken log2 fold change” value was -0.0408. In the case of RRIRHRPPRLPRPRPRPRKWPRP it was -0.0137.

Consider RRIRMRPPRLPRPRPRPSGNPRP, for which the “shrunken log2 fold change” value is -0.14. As to RRIRCRPPRLPRPRPRPHCFPRP, the “shrunken log2 fold change” value was -0.429. The same measure for RRIRRRPPRLPRPRPRPYVQPRP: 0.0531; for RRIRCRPPRLPRPRPRPNTTPRP: -0.291. With RRIRHRPPRLPRPRPRPDSRPRP, the “shrunken log2 fold change” value is -0.00136. Consider RRIRRRPPRLPRPRPRPKRLPRP, for which the “shrunken log2 fold change” value is 0.191. Turning to RRIRDRPPRLPRPRPRPDPGPRP, the “shrunken log2 fold change” value came out at 0.506. In the case of RRIRYRPPRLPRPRPRPTWVPRP it was 0.18; in that of RRIRRRPPRLPRPRPRPGMSPRP, 0.226; in that of RRIRARPPRLPRPRPRPNSTPRP, 0.0264.

As for RRIRLRPPRLPRPRPRPTPYPRP, the “shrunken log2 fold change” value was -0.00235. For the sequence RRIRQRPPRLPRPRPRPHSCPRP, the “shrunken log2 fold change” value is -0.194. In the case of RRIRKRPPRLPRPRPRPGHTPRP it was 0.272; in that of RRIRHRPPRLPRPRPRPADNPRP, -0.306. With RRIRGRPPRLPRPRPRPWDAPRP, the “shrunken log2 fold change” value came out at 0.142. The same measure for RRIRMRPPRLPRPRPRPHAEPRP: 2.8; for RRIRYRPPRLPRPRPRPYEGPRP: -0.00776; for RRIRCRPPRLPRPRPRPRTDPRP: 0.0321. As for RRIRIRPPRLPRPRPRPAYCPRP, the “shrunken log2 fold change” value was -0.23. In the case of RRIRGRPPRLPRPRPRPVENPRP it was 0.757. Regarding RRIRPRPPRLPRPRPRPLMFPRP, the “shrunken log2 fold change” value was -0.138. On to RRIRIRPPRLPRPRPRPQQQPRP, for which the “shrunken log2 fold change” value is -0.061. Turning to RRIRGRPPRLPRPRPRPCHAPRP, the “shrunken log2 fold change” value is 0.274. RRIRWRPPRLPRPRPRPLEEPRP: the “shrunken log2 fold change” value worked out at 1.06. The same measure for RRIRYRPPRLPRPRPRPKWCPRP: -0.00875. The same measure for RRIRMRPPRLPRPRPRPFLIPRP: -0.34. Take RRIRYRPPRLPRPRPRPETNPRP: the “shrunken log2 fold change” value is 0.0266. Turning to RRIRSRPPRLPRPRPRPDYFPRP, the “shrunken log2 fold change” value was -0.133. The same measure for RRIRFRPPRLPRPRPRPLIRPRP: -0.382; for RRIRNRPPRLPRPRPRPELNPRP: -0.0809; for RRIRWRPPRLPRPRPRPTVVPRP: 0.134. For the sequence RRIRVRPPRLPRPRPRPTTKPRP, the “shrunken log2 fold change” value was -0.162. Consider RRIRWRPPRLPRPRPRPQKKPRP, for which the “shrunken log2 fold change” value was 0.0854. The same measure for RRIRPRPPRLPRPRPRPNPGPRP: 0.0588; for RRIRHRPPRLPRPRPRPMTNPRP: -0.19; for RRIRTRPPRLPRPRPRPNHQPRP: -0.35. Regarding RRIRARPPRLPRPRPRPRTPPRP, the “shrunken log2 fold change” value worked out at 0.636. In the case of RRIRWRPPRLPRPRPRPWVYPRP it was -0.384; in that of RRIRLRPPRLPRPRPRPFETPRP, -0.241. Take RRIRTRPPRLPRPRPRPFAGPRP: the “shrunken log2 fold change” value is -0.0338. Take RRIRFRPPRLPRPRPRPYYVPRP: the “shrunken log2 fold change” value is -0.14. RRIRNRPPRLPRPRPRPVYFPRP: the “shrunken log2 fold change” value was -0.301. On to RRIRLRPPRLPRPRPRPQQIPRP, for which the “shrunken log2 fold change” value was -0.878. As to RRIRIRPPRLPRPRPRPIYVPRP, the “shrunken log2 fold change” value is -0.24. On to RRIRFRPPRLPRPRPRPIAEPRP, for which the “shrunken log2 fold change” value came to 0.2. Take RRIRQRPPRLPRPRPRPPVCPRP: the “shrunken log2 fold change” value was -0.0828. On to RRIRLRPPRLPRPRPRPSMLPRP, for which the “shrunken log2 fold change” value is -0.965.

Take RRIRCRPPRLPRPRPRPNVAPRP: the “shrunken log2 fold change” value came to 0.0221. As for RRIRQRPPRLPRPRPRPQVRPRP, the “shrunken log2 fold change” value was -0.276.

As for RRIRERPPRLPRPRPRPDNCPRP, the “shrunken log2 fold change” value is -0.0268. Regarding RRIRIRPPRLPRPRPRPLVNPRP, the “shrunken log2 fold change” value is -0.814.

Turning to RRIRERPPRLPRPRPRPWERPRP, the “shrunken log2 fold change” value came to 0.0496. Take RRIRMRPPRLPRPRPRPMREPRP: the “shrunken log2 fold change” value is 0.279.

Consider RRIRARPPRLPRPRPRPNIPPRP, for which the “shrunken log2 fold change” value was -0.223. The same measure for RRIRGRPPRLPRPRPRPHQPPRP: 0.18; for RRIRFRPPRLPRPRPRPYEEPRP: -0.221. Turning to RRIRIRPPRLPRPRPRPHLVPRP, the “shrunken log2 fold change” value is -0.573. As for RRIRDRPPRLPRPRPRPRPRPRP, the “shrunken log2 fold change” value stood at 0.983. Take RRIRRRPPRLPRPRPRPTVMPRP: the “shrunken log2 fold change” value worked out at 0.286. Regarding RRIRQRPPRLPRPRPRPYCCPRP, the “shrunken log2 fold change” value is -0.781. Regarding RRIRGRPPRLPRPRPRPIWFPRP, the “shrunken log2 fold change” value is 0.31. As for RRIRIRPPRLPRPRPRPRSIPRP, the “shrunken log2 fold change” value is 0.0721. For RRIRWRPPRLPRPRPRPCIQPRP, the “shrunken log2 fold change” value is -0.394. RRIRYRPPRLPRPRPRPHVNPRP: the “shrunken log2 fold change” value is -0.0934. As for RRIRSRPPRLPRPRPRPDASPRP, the “shrunken log2 fold change” value worked out at 0.495. On to RRIRIRPPRLPRPRPRPENVPRP, for which the “shrunken log2 fold change” value turned out to be 0.267. As for RRIRTRPPRLPRPRPRPEGDPRP, the “shrunken log2 fold change” value came out at 0.0354.

RRIRRRPPRLPRPRPRPRYKPRP: the “shrunken log2 fold change” value was -0.0686.

Take RRIRIRPPRLPRPRPRPSATPRP: the “shrunken log2 fold change” value is -0.17.

Consider RRIRSRPPRLPRPRPRPGNAPRP, for which the “shrunken log2 fold change” value turned out to be 0.119. In the case of RRIRFRPPRLPRPRPRPFAAPRP it was 0.114. On to RRIRDRPPRLPRPRPRPAAQPRP, for which the “shrunken log2 fold change” value turned out to be 1.65. With RRIRERPPRLPRPRPRPWQGPRP, the “shrunken log2 fold change” value worked out at 0.0776.

Consider RRIRQRPPRLPRPRPRPSMTPRP, for which the “shrunken log2 fold change” value is -0.285. In the case of RRIRVRPPRLPRPRPRPQSWPRP it was 0.256; in that of RRIRSRPPRLPRPRPRPGDSPRP, -0.0926; in that of RRIRRRPPRLPRPRPRPLCLPRP, 0.0544.

For RRIRDRPPRLPRPRPRPMLMPRP, the “shrunken log2 fold change” value is 0.348. For the sequence RRIRMRPPRLPRPRPRPCLTPRP, the “shrunken log2 fold change” value turned out to be 0.000866. As to RRIRHRPPRLPRPRPRPSPEPRP, the “shrunken log2 fold change” value is -0.0554. In the case of RRIRSRPPRLPRPRPRPYHDPRP it was -0.174; in that of RRIRQRPPRLPRPRPRPGHHPRP, 0.245. In the case of RRIRYRPPRLPRPRPRPVWRPRP, the “shrunken log2 fold change” value was found to be 0.119. The same measure for RRIRHRPPRLPRPRPRPIRLPRP: -0.0644. Regarding RRIRFRPPRLPRPRPRPPHVPRP, the “shrunken log2 fold change” value was 0.203. Take RRIRDRPPRLPRPRPRPCVIPRP: the “shrunken log2 fold change” value is 0.1. Take RRIRERPPRLPRPRPRPWIGPRP: the “shrunken log2 fold change” value was found to be 0.155. As for RRIRKRPPRLPRPRPRPMNPPRP, the “shrunken log2 fold change” value was found to be 0.0725. For RRIRIRPPRLPRPRPRPDGMPRP, the “shrunken log2 fold change” value was -0.06.

With RRIRVRPPRLPRPRPRPIISPRP, the “shrunken log2 fold change” value was -0.418.

With RRIRARPPRLPRPRPRPFHFPRP, the “shrunken log2 fold change” value was -0.25. Consider RRIRERPPRLPRPRPRPMKYPRP, for which the “shrunken log2 fold change” value came out at 0.0847. As to RRIRRRPPRLPRPRPRPRPPPRP, the “shrunken log2 fold change” value was found to be 0.931.

On to RRIRTRPPRLPRPRPRPFCPPRP, for which the “shrunken log2 fold change” value is -0.279.

Turning to RRIRMRPPRLPRPRPRPIVMPRP, the “shrunken log2 fold change” value was 0.163.

In the case of RRIRDRPPRLPRPRPRPLTLPRP, the “shrunken log2 fold change” value is -0.0246. As to RRIRCRPPRLPRPRPRPPSCPRP, the “shrunken log2 fold change” value was -0.0847. RRIRVRPPRLPRPRPRPDYYPRP: the “shrunken log2 fold change” value was -0.679. The same measure for RRIRFRPPRLPRPRPRPNSGPRP: -0.166; for RRIRLRPPRLPRPRPRPVFFPRP: 0.0612; for RRIRMRPPRLPRPRPRPGQCPRP: 0.234.

As to RRIRTRPPRLPRPRPRPSKQPRP, the “shrunken log2 fold change” value was -0.11.

Take RRIRMRPPRLPRPRPRPAPNPRP: the “shrunken log2 fold change” value came out at 1.07.

For the sequence RRIRARPPRLPRPRPRPHYYPRP, the “shrunken log2 fold change” value is -0.146.

Consider RRIRERPPRLPRPRPRPSSVPRP, for which the “shrunken log2 fold change” value is -0.306. As to RRIRTRPPRLPRPRPRPSFLPRP, the “shrunken log2 fold change” value was -0.586. With RRIRRRPPRLPRPRPRPATWPRP, the “shrunken log2 fold change” value came to 0.359.

For RRIRSRPPRLPRPRPRPGMNPRP, the “shrunken log2 fold change” value is -0.249.

Turning to RRIRERPPRLPRPRPRPMVPPRP, the “shrunken log2 fold change” value was -0.103.

Turning to RRIRKRPPRLPRPRPRPNPIPRP, the “shrunken log2 fold change” value turned out to be 0.0804. As to RRIRMRPPRLPRPRPRPESSPRP, the “shrunken log2 fold change” value turned out to be 0.135.

As to RRIRRRPPRLPRPRPRPTDHPRP, the “shrunken log2 fold change” value is -0.235. Consider RRIRWRPPRLPRPRPRPGTDPRP, for which the “shrunken log2 fold change” value was found to be 0.216. Regarding RRIRKRPPRLPRPRPRPSTIPRP, the “shrunken log2 fold change” value is -0.0803. In the case of RRIRKRPPRLPRPRPRPCYGPRP it was -0.237; in that of RRIRLRPPRLPRPRPRPLSFPRP, -0.15; in that of RRIRLRPPRLPRPRPRPAAIPRP, -0.0299. As to RRIRMRPPRLPRPRPRPMRGPRP, the “shrunken log2 fold change” value was found to be 1.53.

On to RRIRMRPPRLPRPRPRPHGCPRP, for which the “shrunken log2 fold change” value worked out at 0.669. As for RRIRMRPPRLPRPRPRPCGRPRP, the “shrunken log2 fold change” value is 1.09. On to RRIRQRPPRLPRPRPRPTTDPRP, for which the “shrunken log2 fold change” value is -0.0492. For the sequence RRIRIRPPRLPRPRPRPCGTPRP, the “shrunken log2 fold change” value is -0.00435.
